Reference: patent publication US20190241662A1 (ADAGENE, published 2019)

T1: human B7H3 on HEK293F cells (human, UniProt Q5ZPR3 29-534)
T1 construct: whole, on cells
T1 sequence (looked up): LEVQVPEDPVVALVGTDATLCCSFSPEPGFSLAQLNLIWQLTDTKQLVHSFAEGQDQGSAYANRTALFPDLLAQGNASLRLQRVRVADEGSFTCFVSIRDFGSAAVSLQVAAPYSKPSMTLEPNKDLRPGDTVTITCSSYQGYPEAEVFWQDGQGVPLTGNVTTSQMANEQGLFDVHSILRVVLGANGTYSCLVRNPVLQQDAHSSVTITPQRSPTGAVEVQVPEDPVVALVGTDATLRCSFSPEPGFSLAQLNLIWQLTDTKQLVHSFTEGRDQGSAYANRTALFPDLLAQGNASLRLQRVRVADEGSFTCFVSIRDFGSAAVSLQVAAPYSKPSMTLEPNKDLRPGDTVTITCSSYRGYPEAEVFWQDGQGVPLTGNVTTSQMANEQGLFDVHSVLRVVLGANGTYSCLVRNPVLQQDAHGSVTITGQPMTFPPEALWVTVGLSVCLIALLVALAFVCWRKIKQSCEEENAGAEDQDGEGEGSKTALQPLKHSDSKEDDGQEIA

T2: human Tim3 on HEK293F cells (human, UniProt Q8TDQ0 22-301)
T2 construct: whole, on cells
T2 sequence (looked up): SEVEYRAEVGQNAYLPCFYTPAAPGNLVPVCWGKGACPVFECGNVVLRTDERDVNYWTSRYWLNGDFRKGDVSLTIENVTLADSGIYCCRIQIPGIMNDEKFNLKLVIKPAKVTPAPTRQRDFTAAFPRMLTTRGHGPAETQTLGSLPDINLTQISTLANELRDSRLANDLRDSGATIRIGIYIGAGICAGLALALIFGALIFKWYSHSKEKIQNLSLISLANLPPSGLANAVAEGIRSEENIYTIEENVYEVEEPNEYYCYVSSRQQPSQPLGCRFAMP

T3: full-length human CTLA4 expressed on cells (human, UniProt P16410 36-223)
T3 construct: whole, on cells; also called HEK293F/hCTLA-4 cells; HEK293F/hCTLA4 cells
T3 sequence (looked up): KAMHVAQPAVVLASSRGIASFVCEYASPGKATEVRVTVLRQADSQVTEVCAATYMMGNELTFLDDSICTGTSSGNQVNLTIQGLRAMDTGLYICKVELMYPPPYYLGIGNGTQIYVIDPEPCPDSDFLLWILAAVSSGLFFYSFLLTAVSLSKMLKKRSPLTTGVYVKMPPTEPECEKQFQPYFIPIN

T4: human OX40 on HEK293F cells (human, UniProt P43489 29-277)
T4 construct: whole, on cells
T4 sequence (looked up): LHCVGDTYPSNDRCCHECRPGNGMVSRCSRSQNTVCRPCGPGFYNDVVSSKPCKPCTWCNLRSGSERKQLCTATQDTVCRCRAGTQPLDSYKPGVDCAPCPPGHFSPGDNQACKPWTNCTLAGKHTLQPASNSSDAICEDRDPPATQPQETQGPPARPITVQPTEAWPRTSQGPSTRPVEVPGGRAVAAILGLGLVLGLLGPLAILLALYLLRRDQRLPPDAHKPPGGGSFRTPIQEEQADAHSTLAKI

T5: human TNFR1 on HEK293F cells (human, UniProt P19438 30-455)
T5 construct: whole, on cells; also called CD120a
T5 sequence (looked up): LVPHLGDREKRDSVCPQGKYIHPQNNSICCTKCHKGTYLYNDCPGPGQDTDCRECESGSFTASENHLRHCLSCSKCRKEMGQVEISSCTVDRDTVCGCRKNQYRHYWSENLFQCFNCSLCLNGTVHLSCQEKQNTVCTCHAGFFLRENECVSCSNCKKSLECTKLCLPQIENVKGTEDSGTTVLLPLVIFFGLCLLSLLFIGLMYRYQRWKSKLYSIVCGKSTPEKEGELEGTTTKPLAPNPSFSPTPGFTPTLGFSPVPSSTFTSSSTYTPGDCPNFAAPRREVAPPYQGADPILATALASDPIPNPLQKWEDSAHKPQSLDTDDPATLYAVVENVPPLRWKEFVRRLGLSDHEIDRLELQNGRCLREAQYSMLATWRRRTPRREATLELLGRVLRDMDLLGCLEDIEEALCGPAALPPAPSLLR

T6: human CD95 on HEK293F cells (human, UniProt P25445 26-335)
T6 construct: whole, on cells
T6 sequence (looked up): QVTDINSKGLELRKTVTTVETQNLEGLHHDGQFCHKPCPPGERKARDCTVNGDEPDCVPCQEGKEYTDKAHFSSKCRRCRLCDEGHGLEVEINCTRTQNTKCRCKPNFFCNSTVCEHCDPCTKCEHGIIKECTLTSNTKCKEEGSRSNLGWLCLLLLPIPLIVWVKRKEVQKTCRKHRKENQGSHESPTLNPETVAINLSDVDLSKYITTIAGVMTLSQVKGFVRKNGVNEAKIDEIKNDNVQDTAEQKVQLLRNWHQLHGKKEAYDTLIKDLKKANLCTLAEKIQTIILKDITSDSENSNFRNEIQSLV


Key:
[1] = biological target: T1, human B7H3 on HEK293F cells; assay: flow cytometry, transfected HEK293F cells
Procedure: (§1) Antibody selectivity was next examined. Human CTLA4, PD1, LAG3, Tim3, B7H3, CD95, TNFR1, OX40, CD40, PD-L1, BLTA, VISTA, PDL2, ICOS and B7H4 were transiently overexpressed on the surface of HEK293F cells. Transfected cells were washed in pre-chilled 1×PBSA buffer (1.76 mM KH2PO4, 10.14 mM Na2HPO4.12H2O, 2.68 mM KCl, 136.89 mM NaCl and 1% BSA), then incubated with 100 nM test antibodies for 1 hour on ice. Cells were washed once with staining buffer, and Alexa Fluor® 647 conjugated mouse anti-human FC antibodies were added and incubated for 30 minutes on ice, protected from light. Samples were washed once with staining buffer prior to analysis by flow cytometry.

[2] = biological target: T2, human Tim3 on HEK293F cells; assay: flow cytometry, transfected HEK293F cells
Procedure: as §1

[3] = biological target: T3, full-length human CTLA4 expressed on …; assay: flow cytometry, transfected HEK293F cells, 100 nM antibody [Cont.]
Procedure: as §1

[4] = biological target: T7, human PD1 on HEK293F cells (human, UniProt Q15116 25-288); assay: flow cytometry, transfected HEK293F cells [Cont.]
T7 construct: whole, on cells
T7 sequence (Q15116 25-288): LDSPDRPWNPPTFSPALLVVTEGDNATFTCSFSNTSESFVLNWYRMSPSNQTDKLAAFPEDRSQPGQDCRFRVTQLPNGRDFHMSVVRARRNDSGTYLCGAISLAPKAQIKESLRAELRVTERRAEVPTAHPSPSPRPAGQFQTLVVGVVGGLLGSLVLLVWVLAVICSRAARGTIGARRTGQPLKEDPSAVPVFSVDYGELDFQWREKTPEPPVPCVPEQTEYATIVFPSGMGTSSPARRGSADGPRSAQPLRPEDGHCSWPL
Procedure: as §1

[5] = biological target: T4, human OX40 on HEK293F cells; assay: flow cytometry, transfected HEK293F cells
Procedure: as §1

[6] = biological target: T5, human TNFR1 on HEK293F cells; assay: flow cytometry, transfected HEK293F cells
Procedure: as §1

[7] = biological target: T6, human CD95 on HEK293F cells; assay: flow cytometry, transfected HEK293F cells
Procedure: as §1

| Binder | binding result [1] | binding result [2] | % of cells in upper right quadrant (Q2) [3] | binding result [4] | Mean [3] | binding result [5] | binding result [6] | binding result [7] |
| --- | --- | --- | --- | --- | --- | --- | --- | --- |
| TY21691 (antibody, V domains shown, human IgG1 (hIgG1) from Fab hit B15736) VH: EVQLVESGGGLVQPGGSLRLSCAASGFTFSDYAIHWVRQAPGKGLEWIGIISPSGGSTKYAQKFQGRVTISRDNSKNTLYLQLNSLRAEDTAVYYCARLGYGYFDVWGQGTLVTVSS VL: DIQLTQSPSSLSASVGDRVTITCRASQSVDFYGISFLHWYQQKPGKAPKLLIYDASSLESGVPSRFSGSGSGTDFTLTISSLQPEDFATYYCVQALQLPLTFGQGTKVEIK | no binding (tested: 100 nM) | no binding (tested: 100 nM) |  |  |  |  |  |  |
| TY21687 (antibody, V domains shown, human IgG1 (hIgG1) from Fab hit B15700) VH: EVQLVESGGGLVQPGGSLRLSCAASGFTFSGYAIHWVRQAPGKGLEWIGIISPSGGGTKYAQKFQGRVTISRDNSKNTLYLQLNSLRAEDTAVYYCARHPFAYWGQGTLVTVSS VL: DIQLTQSPSSLSASVGDRVTITCRASQSVDFYGISFLDWYQQKPGKAPKLLIYDASNRATGIPSRFSGSGSGTDFTLTISSLQPEDFATYYCQQYVSSPPEYTFGQGTKVEIK |  |  | 75.7% | no binding (tested: 100 nM) |  |  |  |  |
| TY21585 (antibody, V domains shown, human IgG1 (hIgG1) from Fab hit B15709) VH: EVQLVESGGGLVQPGGSLRLSCAASGFTFSDYAIHWVRQAPGKGLEWIGIISPSSGSTNYAQKFQGRVTISRDNSKNTLYLQLNSLRAEDTAVYYCARDIHSGSSGYYYGFDVWGQGTLVTVSS VL: DIQLTQSPSSLSASVGDRVTITCRASESVDFFGISFLAWYQQKPGKAPKLLIYDASNRATGIPSRFSGSGSGTDFTLTISSLQPEDFATYYCQHYTSSPPVYTFGQGTKVEIK |  |  | 36.3 |  | 6190 | no binding (tested: 100 nM) | no binding (tested: 100 nM) | no binding (tested: 100 nM) |
